The values below come from patent publication US20160272694A1.

Assay [1] concerns the target hEDAR-mFc (human) (UniProt Q9UNE0). Description: sandwich ELISA: hEDAR-mFc coated, anti-human IgG (Fc) CH2-HRP detection; EDA-A1 with hFc, nominal 100 ng/mL, batch 7. For orientation: An ELISA detects its analyte on a solid surface through an enzyme-linked reagent.
Assay [2] has the same target. Description: sandwich ELISA: hEDAR-mFc coated, anti-human IgG (Fc) CH2-HRP detection; EDA-A1 12.5 ng/mL, batch 7.
The target is the same in assay [3]. Description: sandwich ELISA: hEDAR-mFc coated, anti-human IgG (Fc) CH2-HRP detection; EDA-A1 3.13 ng/mL, batch 7.
For assay [4] the target is unchanged. In words: sandwich ELISA: hEDAR-mFc coated, anti-human IgG (Fc) CH2-HRP detection; EDA-A1 with hFc, nominal 3.13 ng/mL, batch 7.
Assay [5] shares this target. In words: sandwich ELISA: hEDAR-mFc coated, anti-human IgG (Fc) CH2-HRP detection; EDA-A1 with hFc, nominal 25 ng/mL, batch 7.
Assay [6] has the same target. Description: sandwich ELISA: hEDAR-mFc coated, anti-human IgG (Fc) CH2-HRP detection; EDA-A1 100 ng/mL, batch 5.
For assay [7] the target is unchanged. Description: sandwich ELISA: hEDAR-mFc coated, anti-human IgG (Fc) CH2-HRP detection; EDA-A1 100 ng/mL, batch 7.
Assay [8] has the same target. Description: sandwich ELISA: hEDAR-mFc coated, anti-human IgG (Fc) CH2-HRP detection; EDA-A1 25 ng/mL, batch 7.
For assay [9] the target is unchanged. Description: sandwich ELISA: hEDAR-mFc coated, anti-human IgG (Fc) CH2-HRP detection; EDA-A1 with hFc, nominal 12.5 ng/mL, batch 7.
Assay [10] shares this target. Description: sandwich ELISA: hEDAR-mFc coated, anti-human IgG (Fc) CH2-HRP detection; EDA-A1 with hFc, nominal 6.25 ng/mL, batch 7.
Assay [11] shares this target. In words: sandwich ELISA: hEDAR-mFc coated, anti-human IgG (Fc) CH2-HRP detection; EDA-A1 50 ng/mL, batch 7.
Assay [12] has the same target. In words: sandwich ELISA: hEDAR-mFc coated, anti-human IgG (Fc) CH2-HRP detection; EDA-A1 6.25 ng/mL, batch 7.
For assay [13] the target is unchanged. In words: sandwich ELISA: hEDAR-mFc coated, anti-human IgG (Fc) CH2-HRP detection; EDA-A1 with hFc, nominal 50 ng/mL, batch 7.
For assay [14] the target is unchanged. Description: sandwich ELISA: hEDAR-mFc coated, anti-human IgG (Fc) CH2-HRP detection; EDA-A1 100 ng/mL with hFc 100 ng/mL, batch 5.
In assay [15] the target is EDI200 (human). In words: bridging ECL in NHP serum; Renzo-1 15.63 ng/mL with 1 µg/mL free EDI200 as competitor.
The target of assay [16] is EDI200 (human). In words: bridging ECL (biotin-EDI200/SulfoTag-EDI200) in NHP serum; Renzo-1 125 ng/mL.
The target of assay [17] is EDI200 (human). In words: bridging ECL (biotin-EDI200/SulfoTag-EDI200) in NHP serum; plate NCO 129.4.
The target of assay [18] is EDI200 (human). Description: bridging ECL in NHP serum; Renzo-1 31.25 ng/mL with 1 µg/mL free EDI200 as competitor.
For assay [19], the target named is EDI200 (human). In words: bridging ECL in NHP serum; Renzo-1 31.25 ng/mL, signal with 1 µg/mL free EDI200 over signal without (Table 17).
Assay [20] has as its target EDI200 (human). Description: bridging ECL in NHP serum; Renzo-1 7.81 ng/mL, signal with 1 µg/mL free EDI200 over signal without (Table 17).
Assay [21] addresses EDI200 (human). In words: bridging ECL (biotin-EDI200/SulfoTag-EDI200) in NHP serum; Renzo-1 31.25 ng/mL.
The target in assay [22] is EDI200 (human). In words: bridging ECL (biotin-EDI200/SulfoTag-EDI200) in NHP serum; Renzo-1 500 ng/mL; plate NCO 129.4.
The target in assay [23] is EDI200 (human). In words: bridging ECL in NHP serum; Renzo-1 250 ng/mL, signal with 1 µg/mL free EDI200 over signal without (Table 17).
The target of assay [24] is EDI200 (human). In words: bridging ECL in NHP serum; Renzo-1 500 ng/mL with 1 µg/mL free EDI200 as competitor; plate NCO 129.4.
Assay [25] concerns the target EDI200 (human). Description: bridging ECL in NHP serum; Renzo-1 500 ng/mL, signal with 1 µg/mL free EDI200 over signal without (Table 17).
Assay [26] deals with EDI200 (human). Description: bridging ECL in NHP serum; Renzo-1 125 ng/mL, signal with 1 µg/mL free EDI200 over signal without (Table 17).
The target in assay [27] is EDI200 (human). Description: bridging ECL in NHP serum; Renzo-1 250 ng/mL with 1 µg/mL free EDI200 as competitor.
The target of assay [28] is EDI200 (human). Description: bridging ECL in NHP serum; Renzo-1 62.5 ng/mL with 1 µg/mL free EDI200 as competitor.
In assay [29] the target is EDI200 (human). Description: bridging ECL (biotin-EDI200/SulfoTag-EDI200) in NHP serum; Renzo-1 250 ng/mL.
The target of assay [30] is EDI200 (human). Description: bridging ECL in NHP serum; Renzo-1 7.81 ng/mL with 1 µg/mL free EDI200 as competitor.
Assay [31] deals with EDI200 (human). In words: bridging ECL in NHP serum; Renzo-1 15.63 ng/mL, signal with 1 µg/mL free EDI200 over signal without (Table 17).
Assay [32] concerns the target EDI200 (human). In words: bridging ECL in NHP serum; Renzo-1 62.5 ng/mL, signal with 1 µg/mL free EDI200 over signal without (Table 17).
Assay [33] has as its target EDI200 (human). In words: bridging ECL (biotin-EDI200/SulfoTag-EDI200) in NHP serum; Renzo-1 62.5 ng/mL.
In assay [34] the target is EDI200 (human). In words: bridging ECL (biotin-EDI200/SulfoTag-EDI200) in NHP serum; Renzo-1 15.63 ng/mL.
Assay [35] concerns the target EDI200 (human). In words: bridging ECL (biotin-EDI200/SulfoTag-EDI200) in NHP serum; Renzo-1 7.81 ng/mL.
Assay [36] deals with EDI200 (human). In words: bridging ECL in NHP serum; Renzo-1 125 ng/mL with 1 µg/mL free EDI200 as competitor.
Assay [37] has as its target EDI200 (human). Description: bridging ECL in NHP serum; antibody 500 ng/mL with 1 µg/mL free EDI200.
Assay [38] deals with EDI200 (human). Description: bridging ECL (biotin-EDI200/SulfoTag-EDI200) in NHP serum; antibody 15.63 ng/mL.
Assay [39] has as its target EDI200 (human). Description: bridging ECL (biotin-EDI200/SulfoTag-EDI200) in NHP serum; antibody 7.81 ng/mL.
For assay [40], the target named is EDI200 (human). In words: bridging ECL in NHP serum; antibody 15.63 ng/mL, signal with 1 µg/mL free EDI200 over signal without.
Assay [41] concerns the target EDI200 (human). In words: bridging ECL (biotin-EDI200/SulfoTag-EDI200) in NHP serum; antibody 31.25 ng/mL.
Assay [42] has as its target EDI200 (human). Description: bridging ECL in NHP serum; antibody 250 ng/mL, signal with 1 µg/mL free EDI200 over signal without.
Assay [43] deals with EDI200 (human). In words: bridging ECL (biotin-EDI200/SulfoTag-EDI200) in NHP serum; antibody 125 ng/mL.
The target in assay [44] is EDI200 (human). In words: bridging ECL in NHP serum; antibody 31.25 ng/mL, signal with 1 µg/mL free EDI200 over signal without.
The target in assay [45] is EDI200 (human). Description: bridging ECL (biotin-EDI200/SulfoTag-EDI200) in NHP serum; antibody 500 ng/mL; plate NCO 129.4.
Assay [46] addresses EDI200 (human). Description: bridging ECL in NHP serum; antibody 250 ng/mL with 1 µg/mL free EDI200.
Assay [47] addresses EDI200 (human). Description: bridging ECL in NHP serum; antibody 500 ng/mL, signal with 1 µg/mL free EDI200 over signal without.
For assay [48], the target named is EDI200 (human). Description: bridging ECL in NHP serum; antibody 31.25 ng/mL with 1 µg/mL free EDI200.
Assay [49] has as its target EDI200 (human). In words: bridging ECL in NHP serum; antibody 7.81 ng/mL with 1 µg/mL free EDI200.
Assay [50] deals with EDI200 (human). In words: bridging ECL in NHP serum; antibody 7.81 ng/mL, signal with 1 µg/mL free EDI200 over signal without.
Assay [51] addresses EDI200 (human). Description: bridging ECL (biotin-EDI200/SulfoTag-EDI200) in NHP serum; antibody 250 ng/mL.
For assay [52], the target named is EDI200 (human). Description: bridging ECL in NHP serum; antibody 62.5 ng/mL with 1 µg/mL free EDI200.
Assay [53] addresses EDI200 (human). In words: bridging ECL in NHP serum; antibody 15.63 ng/mL with 1 µg/mL free EDI200.
Assay [54] has as its target EDI200 (human). Description: bridging ECL in NHP serum; antibody 62.5 ng/mL, signal with 1 µg/mL free EDI200 over signal without.
Assay [55] has as its target EDI200 (human). Description: bridging ECL in NHP serum; antibody 125 ng/mL with 1 µg/mL free EDI200.
In assay [56] the target is EDI200 (human). Description: bridging ECL (biotin-EDI200/SulfoTag-EDI200) in NHP serum; antibody 62.5 ng/mL.
Assay [57] has as its target EDI200 (human). In words: bridging ECL in NHP serum; antibody 125 ng/mL, signal with 1 µg/mL free EDI200 over signal without.

In the case of “Recombinant human Ectodysplasin A1 (from UniProt Q92838 160-391) (ligand)”, the Mean Conc. (read as EDI200 from the standard curve) with hEDAR-mFc (human) [1] stood at 4.77 ng/mL; with hEDAR-mFc (human) [6], 5.43 ng/mL; with hEDAR-mFc (human) [7], 6.14 ng/mL; in the assay with hEDAR-mFc (human) [14], 5.34 ng/mL. Further, the Mean OD in the assay with hEDAR-mFc (human) [1] was 0.275 OD; in the assay with hEDAR-mFc (human) [2] it was 0.14 OD; with hEDAR-mFc (human) [3] it was 0.116 OD; with hEDAR-mFc (human) [4], 0.121 OD; in the assay with hEDAR-mFc (human) [5] it was 0.18 OD; with hEDAR-mFc (human) [6], 0.292 OD. Moreover, the Mean OD with hEDAR-mFc (human) [7] came to 0.316 OD; with hEDAR-mFc (human) [8], 0.18 OD; in the assay with hEDAR-mFc (human) [9] it was 0.15 OD; with hEDAR-mFc (human) [10] it was 0.125 OD; with hEDAR-mFc (human) [11], 0.234 OD; with hEDAR-mFc (human) [12], 0.119 OD. The Mean OD worked out at 0.214 OD with hEDAR-mFc (human) [13] and 0.289 OD with hEDAR-mFc (human) [14].

Regarding “Mouse monoclonal (Renzo-1) to EDA (antibody)”, the Mean Signal was 78 signal (ECL) with EDI200 (human) [15]; 306 signal (ECL) with EDI200 (human) [16]; 80 signal (ECL) with EDI200 (human) [18]; 129 signal (ECL) with EDI200 (human) [21]; 949 signal (ECL) with EDI200 (human) [22]; 171 signal (ECL) with EDI200 (human) [24]. The Mean Signal with EDI200 (human) [27] was 89 signal (ECL); with EDI200 (human) [28] it was 75 signal (ECL); in the assay with EDI200 (human) [29], 495 signal (ECL); with EDI200 (human) [30], 81 signal (ECL); with EDI200 (human) [33], 176 signal (ECL); with EDI200 (human) [34], 102 signal (ECL). In addition, the Mean Signal is 89 signal (ECL) with EDI200 (human) [35] and 85 signal (ECL) with EDI200 (human) [36]. For the same substance, the sensitivity (lowest antibody concentration with mean signal above the plate NCO) with EDI200 (human) [17] turned out to be 62.5 ng/mL. In addition, the Drug/Non-drug Ratio was determined as 0.62 with EDI200 (human) [19]; 0.91 with EDI200 (human) [20]; 0.18 with EDI200 (human) [23]; 0.18 in the assay with EDI200 (human) [25]; 0.28 with EDI200 (human) [26]; 0.77 with EDI200 (human) [31]. In the assay with EDI200 (human) [32], the Drug/Non-drug Ratio worked out at 0.43.

As to mouse anti-human CD106 IgG1 antibody, the Mean Signal with EDI200 (human) [37] was 81 signal (ECL); in the assay with EDI200 (human) [38] it was 81 signal (ECL); in the assay with EDI200 (human) [39] it was 85 signal (ECL); in the assay with EDI200 (human) [41] it was 81 signal (ECL); in the assay with EDI200 (human) [43], 82 signal (ECL); with EDI200 (human) [45] it was 86 signal (ECL). The Mean Signal in the assay with EDI200 (human) [46] was 80 signal (ECL); with EDI200 (human) [48], 76 signal (ECL); with EDI200 (human) [49], 80 signal (ECL); with EDI200 (human) [51], 83 signal (ECL); with EDI200 (human) [52], 76 signal (ECL); in the assay with EDI200 (human) [53], 74 signal (ECL). Also, the Mean Signal in the assay with EDI200 (human) [55] is 76 signal (ECL); with EDI200 (human) [56], 81 signal (ECL). Moreover, the Drug/Non-drug Ratio in the assay with EDI200 (human) [40] was 0.91; with EDI200 (human) [42] it was 0.96; in the assay with EDI200 (human) [44], 0.93; in the assay with EDI200 (human) [47], 0.95; in the assay with EDI200 (human) [50], 0.93; in the assay with EDI200 (human) [54] it was 0.94. The Drug/Non-drug Ratio in the assay with EDI200 (human) [57] turned out to be 0.93.
